Biological target: T1, FRα重组蛋白 (叶酸受体α, folate receptor α recombinant protein) (UniProt P15328 25-233, limits assumed)
T1 construct: Recombinant protein used for panning and ELISA (coated) and, after biotinylation (biotin:protein 20:1), on streptavidin sensors for BLI
Experiment: BLI (ForteBio Octet), biotinylated FRα on streptavidin sensor, scFv in solution

T1 sequence (P15328 25-233 limits assumed): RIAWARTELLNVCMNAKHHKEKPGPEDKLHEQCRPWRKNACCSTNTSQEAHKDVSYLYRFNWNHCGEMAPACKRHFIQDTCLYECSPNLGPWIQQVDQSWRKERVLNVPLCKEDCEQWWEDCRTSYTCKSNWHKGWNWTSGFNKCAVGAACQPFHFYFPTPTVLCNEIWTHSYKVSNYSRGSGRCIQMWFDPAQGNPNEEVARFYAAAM

Kd: 41.3 nM | koff: 0.00127 s⁻¹ | kon: 30900 M⁻¹ s⁻¹
B1: FR ScFv (靶向叶酸受体α的单链抗体) (scFv)
scFv: QAQLLESGGGLVQPGGSLRLSCAASGFTFSSYAMSWVRQAPGKGLEWVSAISGSGGSTYYADSVEGRFTISRDNSKNTLYLQMNSLRAEDTAVYYCARRAVGRGWRFWGQGTMVTVSSGGGGSGGGGSGGGGSDIVLTQSPSASGTPGQRVTISCSGSSSNIGSNYVYWYQQLPGTAPKLLIYRNNQRPSGVSDRFSGSKSGTSASLAISGLRSEDEADYYCAAWDDSLSARVFGGGTKVDIKR
notes: Soluble scFv expressed in E. coli BL21 from pET22b (BamH I/Hind III), purified on a nickel column; about 28.32 kDa; Vector-derived residues at the N-terminus (pelB leader, cloning site) are not described; also called 叶酸受体α单链抗体; FRα单链抗体; not shown: C-terminal His tag from the pET22b vector (fused downstream of the gene)

Source: patent CN111393528A (UNIV CHINA PHARMA, dated 2020)
